The test deals with T1, Rev1 C-terminal domain (876–985) of the Rad5–Rev1 fusion protein (S. cerevisiae, UniProt P12689 876-985).
T1 sequence (looked up): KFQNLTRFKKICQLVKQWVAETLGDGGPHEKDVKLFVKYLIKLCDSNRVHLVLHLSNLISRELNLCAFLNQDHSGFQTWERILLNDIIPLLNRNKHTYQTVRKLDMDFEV
The test can be described thus: crystal structure.

This note sets out measurements from article PMC4914093 (Nucleic Acids Research, 2016).

B1: Rad5 peptide (5–20) of the Rad5–Rev1 fusion protein (peptide, UniProt P32849 5-20, looked up)
chain: EQEERKRFFNDDLDTS
As to B1, the binding result is “binds”.
